# Experimental data published in the DeepSol protein solubility set.
# Assay: soluble on expression in E. coli; label from the status in PepcDB or PDB records
row,Sequence,soluble on expression in E. coli
1,MKDGEAATGQAASRPKRADARRNEKNLLDAAAAVFVRSGVEAPVRDIAAEAGVGTATIYRHFPTRADLIIGVYRHQVEACAEAGPALLASSPTPYAALAGWIDLFVDFLVTKHGLAAVLQSDSAGFETLHAYFLDRLVPVCTDLLAAATDSGEIDTDVPPLALMRGVGNLCIGAETPNPSYDARQLVRILIAGLRAAD,not soluble
2,MSFVQPGLAQEKERMWRTLTVSGRGVESIPTTLSEVSLGVEIQGKTAQEVQHEAARRSSAVVALLKSRNVEKLQTTGIRLNPVYSYNNNVQRITGYAASNTVNFRIATEKAGTLLDEAVKAGATQINGISFVATDEAIASARQQALKEATQDAQQQASAVFSSLGFQAKEVVSIQVGGATAPPPPILYRAEAAKLSSADASTPVIGGEQQVEASVTLQISYLEHHHHHH,soluble
3,MGSDKIHHHHHHMSVRCASLSAMELTQATVNDLLAQLGPGDSYMYLPSDLDPQDLTDLLDGRYGAARTLVLDGFTDPTVDESRGAALLVPFEDRAVKIRAWAYGDQWVGTGTARDAKGAERPVLVVAHREVPEPLAVAPDEDEDVDWMERLIRITGWTRPAQRPDVDWAEVESRLGTALPSDYKRMVETFGEGAFDGYLDLNQEPWTDLRRDGLLIWAGTEHEDLYCWRADGDDPDRWPVVVRSFDNKDVPFDCQAAKFVCRILIDPHHPFTMARYFDTHWFMNYRESG,not soluble
4,MSLKLLFFDTETTGVKPGSICQLSYILVDTSTKPQKTIGKNIFFTVDEMEPEAERIHGFSLEKLYELSEGMYFEDLYADFINDFLEADFIIGHNVQFDIKFLKHELLGLGEFFEPNNVFCTMKYYKDICKILRPTGDYKNPKLEEVIKHLNITDSEISETANKYFQGSGNYHDARFDTAATYLTVINGIKKGLIPRNYFTKLLEAEGHHHHHH,soluble
5,MGSDKIHHHHHHMPPAKTQEFDPSRIKEPNSPSVITKAATLMDVLRTEGPTNSARLAEVLGEPISSVYRMLHTLTAIGWVEQDGKRGSYRVGLAMLTLAELQLRHMDLRKIAALTMRKIHALTGETTFLCVRHGIRAVCIERVDGDRVNSRVLQLGTSLPLHVGAAPRALLAFEGRRAWETYATNLGFEGHNWSKGPSRGELFQHLDEDRDKGFCLVDNEITPGIAAVGAPIYNHRGEVVASLSMSGLRDGILSDTTDYSAVELILQGSAEISQALGATIEHNGGNQKLPQVTPLSIVV,not soluble
6,MLTEGISIQSYDGHTFGALVGSPAKAPAPVIVIAQDIFGVNAFMRETVSWLVDQGYAAVCPDLYARQAPGTALDPQDERQREQAYKLWQAFDMEAGVGDLEAAIRYARHQPYSNGKVGLVGYSLGGALAFLVASKGYVDRAVGYYGVGLEKQLNKVPEVKHPALFHMGGQDHFVPAPSRQLITEGFGANPLLQVHWYEEAGHSFARTGSSGYVASAAALANERTLDFLVPLQSRKP,soluble
7,MGSDKIHHHHHHMAKYEQLAQELKTRIAQGVWQAGDKLPSLRQTVADSGLSLMTVLNAYQLLESQGVISAQAKSGYLVAPKPELIARQGEAFRYPERQKPIYLSDSVDINEFVFNVLQASKQADIVPFGSGFPDPSLFPQQALARSLVKVTRHMSPSFAADNLPPGNAGLRKAISQRYAKLGMSISPDEIIITSGAMEALNLSLATLTQAGDWVVIESPTFYGAMQAIERLKLKAIAVATDPQQGIDLEALAEVLKTYPVKACWLMSQHQNPLGCSLSDTKKQALYQLLNEHKVSLIEDDVYQELYVDSSAPRSVKAFDTEGRVLHCGSFSKSLIAGYRVGWVAAGCHAPQLQRLQVMSTLSTSAPMQLAIADFIQSAQYERHLKQLRKKLASRKLAMYQLLCAHLPESVGVNFAQGGYFLWLALPAHMDATQIYYQAIERGISIAPGNLFSNQVEFRHFMRLNASYECSSEIVSAVMVLAELIRNYSRRS,not soluble
8,MSLREVALKILIVEDDTDAREWLSTIISNHFPEVWSAGDGEEGERLFGLHAPDVIITDIRMPKLGGLEMLDRIKAGGAKPYVIVISAFSEMKYFIKAIELGVHLFLPKPIEPGRLMETLEDFRHIKLAKLKKEEAEQERIRSLLFESKKELIRLIAHHWRQPLNVISITAENIKLNLDERGIEGHEDTHHLADKIVTESLRLSRVISRFSDTFFAKEEVGRHFGLHTVLKDAFEIAEPLAQEARCLLEIEGNDEVIFGLKGMLVQILLEVFKAIMALCDQVNRGELLVRVVCESFEGEVKIWMADVACAGRCWSEVMFEPFAGGFEEKRRDMELFVAQHLLRRYFDGMIKIVDRGEIRGLEITLSRNPKKFNSPLAEGHHHHHH,soluble
9,MQNRLTIKDIARLSGVGKSTVSRVLNNESGVSQLTRERVEAVMNQHGFSPSRSARAMRGQSDKVVAIIVTRLDSLSENLAVQTMLPAFYEQGYDPIMMESQFSPQLVAEHLGVLKRRNIDGVVLFGFTGITEEMLAHWQSSLVLLARDAKGFASVCYDDEGAIKILMQRLYDQGHRNISYLGVPHSDVTTGKRRHEAYLAFCKAHKLHPVAALPGLAMKQGYENVAKVITPETTALLCATDTLALGASKYLQEQRIDTLQLASVGNTPLMKFLHPEIVTVDPGYAEAGRQAACQLIAQVTGRSEPQQIIIPATLS,soluble
10,MTDKDLLHQKYYHGLLPREDIQEMLNKPGQFLLRTSEPVKGEKRQFVLSVVGEKNTSANHFVVREADHKVYVDKIGFPTIIELVNHYVSTKESFSTKDGTVKVVLKHAVERQKWELYHEDVELTKKLGEGAFGEVWKGKLLKILDANHQPVLVAVKTAKLESMTKEQIKEIMREARLMRNLDHINVVKFFGVAAGTEPLYVIMELADGGALDSALGKLHFPMIKKYELIYQAANGLAYIHEKNLMHRDVAARNCLYGGGQVKIADFGLSREGADYTMDLKKKVPIRWLPPETIRSGLYTPKTDVFAFGVMAWEITEDGKEPYPGFKVIEVAMKVLQGYRMPFSPEVNKEFAEFILTKCWPEKYEDRLPMKDICKWMKSSVKAQGGDTGPGGMMSKFGKKIKRSNSRESKSKSSTMTAAHGHDQGAMTAIEK,not soluble
11,WTGEDSAEPNSDSAEWIRDMYAKVTEIWQEVMQRRDDDGTLHAACQVQPSATLDAAQPRVTGVVLFRQLAPRAKLDAFFALEGFPTEPNSSSRAIHVHQFGDLSQGCESTGPHYNPLAVPHPQHPGDFGNFAVRDGSLWRYRAGLAASLAGPHSIVGRAVVVHAGEDDLGRGGNQASVENGNAGRRLACCVVGVCGPGLWERQAREHSERKKRRRESECKAA,soluble
12,MGSDKIHHHHHHDKMNKNTGALQFDSIQVNETAHLFNDTAKPACNIIINFAYPVKSSDDMLKDSLNAYFISVCFGDKYIGEKPEAVVKQYAKNYIDEYRHDQEPMYAEDEKNKESDAVVGAWYSYYKSIESHVQLYEKDLLVYRVDYNEYTGGAHGMYMSTFLNMDLTLMRPLRLDDIFVGDFQEALTDLIWNQLMADNKVTTHEALEDMGYASTGDIAPTENFYLSKEGITFYYNIYDITPYSMGPVKVTIPYSMMEHLLGSNPILGDLKD,not soluble
13,MKTTPDILDQIRVHGADAYPEEGCGFLLGTVTDDGDNRVAALHRATNRRSEQRTRRYELTADDYRAADAAAQEQGLDVVGVYHSHPDHPARPSATDLEEATFPGFTYVIVSVRDGAPEALTAWALAPDRSEFHREDIVRPDPEAPLEHHHHHH,soluble
14,MFFKQFYEDNFSQASYLIGCQRTGEAMIIDPIRDLTKYLKVADKEGFTITKAAETHIHADFASGIRDVANKLNASIYVSDEGKDEFNYKNMPKQTHFVKHQDIIYLGKIKLEVLHTPGHPPESISFLLTDEGGGSSIPMGLFSGDFIFVGDVGRPDLLEKAVNVEGSTKIGAKQMYQSIQFAATLPDYIQIWPGHGAGSPCGKALGSLPTTTLGYEKINNWAFNVKDETSFIETLTLNQPAPPHHFSQMKKINQFGMQMYQPYNVYPSSSNTQTAFDLRSKEAFHGGHMHGTINIPFNKTFINQIGWYLDYDLEHHHHHH,soluble
15,MSERLFVLSQHILPKLALTRLAGRFADWKGGGITTAAIRRFIARYNVDMGEAADSDPAAYATFNDFFTRALKPGVRPVADARLVCPVDGAVSQLGAIDSGRIFQAKGRDYSATALLAGDADLAARFADGHFATIYLSPRDYHRIHMPCAGRLLEMTYVPGDLYSVNPATARGVDRLFARNERVVCVFEDEQSQPFVMVLVGATIVGSMATVWHGVVNPPRRPAVEKWDYRGQDIRLAKGEEMGRFLLGSTVVLLYPAGPLKFNPQWQAASPVRMGEAMASLEHHHHHH,not soluble
16,MAHHHHHHMALLQRVAQVMQEVAPLSLADHSWDNVGVLLESPAPNKSNAIMLTIDLTPEVMEECLEKNVEVILAYHPPLFRPVKRLTLQDPKQRIILQAASAGMSIYAPHTSLDAAEGGINDWLASLVAGDGAYTASPIQPTSSYAPNAAEATKATGMGRLVKLKEEVEFCSMVGSLKQQLGLATVRVALPDSWEPSHKVSSVALCAGSGTSVFRLLRLPVHVLLSGEMSHHDVLAATAAGQAVILCEHTNTERGFLKAVLQRTLQAKLEGTTVLVSDKDSDPLTAW,soluble
17,MGSDKIHHHHHHAACSNDDEPGIDKGGQKGELIDAISIAFTSSSAPATRADKGEIEGVGTENNVYVAYLFAKENDPQHEGAKVGDWTVKRVAGDSNTDDKDVAAAIGEGDVATPGTKKNMCTFNGVRQGDSVYVVVNDPQMTLATAQTLAHQGDKSEAAIRAYISNLSKSYLNDLTVTKDGTQGKKYIMAGVSAIPTNPNIPNGSTVKVSIPLNRELAKVFFNASVTTNPVYEAYGKMAIKDAVWENPTGTKDPDGIVVVRIPRRVSPFTAQARDWYFPQSADATAKDWDVEGWLKAFAGESQSVPGTAEVPGTTLALNKGEYNADAKEYRLTWVVGEKALADGATPAAASMVYVKSDKLYSPYFYVTPNYADNAGCATVVVTQATYIGANTLLEPTITEQMLSEALDDSDFQTATSTDGSVKYDKLAADFWNTGANVAALVAFLEKNATYKLALRGETDPSKKEAAITIKPNDKRYYRADVANYSDDETTSMKITERNTFYHITGTITTLGAKSIEDAINSDNIDMLVQVVVKPWKYVVNNINM,not soluble
18,MSLVYTEVPKSVATFMETITEKCGEAHQDWAKNFQAAFANTLLTTVKRQEDGTTFLLTGDIPAMWLRDSTAQVRPYLVIAKEDEDLAQMIAGLVKRQFRYICIDPYANAFNETDNHAGHQTDKTEMNGWIWERKYEIDSLCYPVQLAYLLYKNTGMTEQFNSDFVEGVKKILNVFTTEQDHAQSPYLFERDTWRQEDTLVEAGKGTPVGKTGMTWSGFRPSDDACQYGYLVPSNMFAVVILGYIQEIFSDVLEDATIGAIAKKLQEEIEEGIQTFGRTKNQNNETIYAYEVDGLGNASVMDDSNVPNLVAAPYLGYCSTEDEQYLTTRQTLLSKENPYFYEGKYAKGIGSSHTPENYVWPIALAMEGMTTKDKAEKERILDLLVATDAGTHLMHEGFDVDNPENYTREWFSWANMMFCELVMDYFDIRVEKEGGSHHHHHH,soluble
19,SNAMALGFGMKMELQQFLDALASSPEKIEFETTMAVIEDNYDFTPAAFTNGNTQNDANENNGSCKIFAFGLLNALDKEATLACFGRFYREDVLLHPENNDHQNIRNFMVTGWEGIQFETSALTAK,soluble
20,MSDAPTVVAYLGPAGTFTEEALYKFADAGVFGDGEIEQLPAKSPQEAVDAVRHGTAQFAVVAIENFVDGPVTPTFDALDQGSNVQIIAEEELDIAFSIMVRPGTSLADVKTLATHPVGYQQVKNWMATTIPDAMYLSASSNGAGAQMVAEGTADAAAAPSRAAELFGLERLVDDVADVRGARTRFVAVQAQAAVSEPTGHDRTSVIFSLPNVPGSLVRALNEFAIRGVDLTRIESRPTRKVFGTYRFHLDISGHIRDIPVAEALRALHLQAEELVFVGSWPSNRAEDSTPQTDQLAKLHKADEWVRAASEGRKLN,soluble
21,MEGTMTCIYESVITGVGSEVQYFIEENMVVIFNDTVPDDLKSIGVIHKHTELQADVAAGDVLEVNGACFRILFVGDKVNDTLREIGHCTIAFNGETNADLPGTLCVEKKPLPDFVTGATIKFIKE,not soluble
